Data: US20170267752A1 (Ablynx, published 2017)

B1: A016600021 (VHH)
VHH: DVQLVESGGGVVQPGGSLRLSCTASGFTFSTADMGWFRQAPGKGREFVARISGIDGTTYYDEPVKGRFTISRDNSKNTVYLQMNSLRPEDTALYYCRSPRYADQWSAYDYWGQGTLVTVSS
B2: A016600045 (VHH)
VHH: DVQLVESGGGVVQPGGSLRLSCTASGFTFSTADMGWFRQAPGKGREFVARISGIDGTTYYDEPVKGRFTISRDNSKNTVYLQMNSLRPEDTALYYCRSPRYADQWSAHDYWGQGTLVTVSS
B3: A016600038 (VHH)
VHH: DVQLVESGGGVVQPGGSLRLSCTASGFTFSTADMGWFRQAPGKGREFVARISGIDGTTYYDEPVKGRFTISRDNAKNTVYLQMNSLRPEDTALYYCRSPRYADQWSAYDYWGQGTLVTVSS
B4: A016600052 (VHH)
VHH: DVQLVESGGGVVQPGGSLRLSCTASGFTFSTADMGWFRQAPGKGREFVCRISGIDGTTYYDEPVKGRFTCSRDNSKNTVYLQMNSLRPEDTALYYCRSPRYADQWSALDYWGQGTLVTVSS
notes: S49C, I69C (intradomain disulfide) and Y100dL
B5: A016600046 (VHH)
VHH: DVQLVESGGGVVQPGGSLRLSCTASGFTFSTADMGWFRQAPGKGREFVARISGIDGTTYYDEPVKGRFTISRDNSKNTVYLQMNSLRPEDTALYYCRSPRYADQWSALDYWGQGTLVTVSS
notes: Y100dL substitution in CDR3; also called A016600046 100dL; A016600046 Y100dL

Key:
[1] = biological target: membrane bound human TNF (mTNF), human TNF R77T/S78T variant on HEK293H-mTNF cells (human) (UniProt P01375); experiment: competition FACS on HEK293H-mTNF cells, competitor Enbrel at EC30 (0.02 nM)
Sequence of membrane bound human TNF (mTNF), human TNF R77T/S78T variant on HEK293H-mTNF cells (human) (P01375 whole entry, stated change not applied): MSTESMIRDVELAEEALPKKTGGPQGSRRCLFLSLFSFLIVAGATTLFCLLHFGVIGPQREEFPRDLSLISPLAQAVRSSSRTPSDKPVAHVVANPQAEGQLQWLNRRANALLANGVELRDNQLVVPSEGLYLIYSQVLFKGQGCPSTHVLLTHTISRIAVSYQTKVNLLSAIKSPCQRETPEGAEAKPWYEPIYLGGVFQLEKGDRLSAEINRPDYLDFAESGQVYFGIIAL

[2] = biological target: membrane bound human TNF (mTNF), human TNF R77T/S78T variant on HEK293H-mTNF cells (human) (UniProt P01375); experiment: competition FACS on HEK293H-mTNF cells, competitor Enbrel at EC90 (0.2 nM)
biot-hTNFα = biot-hTNFα (human, UniProt P01375 77-233, biotinylated (site not stated)); experiment: competition ELISA according to Example 5 (assay not given)
Sequence of biot-hTNFα (P01375 77-233 limits assumed): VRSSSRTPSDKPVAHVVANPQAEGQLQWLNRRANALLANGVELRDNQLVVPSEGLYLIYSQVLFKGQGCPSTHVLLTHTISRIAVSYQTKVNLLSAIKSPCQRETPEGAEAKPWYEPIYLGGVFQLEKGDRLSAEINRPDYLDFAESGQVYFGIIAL
Procedure: The SHIME model consists of five reactors which sequentially simulate the stomach (acid conditions and pepsin digestion), small intestine (digestive processes) and the 3 regions of the large intestine, i.e. the ascending (“A”), transverse (“T”) and descending colon (“D”) (microbial processes). […] All GI fluids were provided by ProDigest (Technologiepark 4, 9052 Zwijnaarde, Belgium). The anti-TNF Nanobodies were tested for a maximum period of 39 hours in the GI-fluids. After the incubation in the GI-fluids, stability of the Nanobodies was determined via functionality testing in a competition ELISA. The Nanobodies were tested at a fixed concentration of 100 μg/ml at 37° C. in 5 different GI fluids in the SHIMS model. At different time-points samples were taken and stored in the −20° C. with or without the addition of protease inhibitors, according to the schedule in Table 5.1. The samples were transferred to coated ELISA plates and subsequently tested in the competition ELISA. […] After blocking, a fixed concentration of 0.3 nM biot-hTNFα together with a titration series of the variants in the different GI fluids was added. Detection was performed with extravidin-HRP.

Binder | IC50 [1] | IC50 [2] | IC50 (biot-hTNFα) | fold increase of IC50 compared to 00021 (biot-hTNFα)
B1 | 0.43 nM | 0.65 nM | 0.67 nM | 
B2 | 0.54 nM | 0.76 nM |  | 
B3 | 0.43 nM | 0.7 nM |  | 
B4 |  |  | 3.56 nM | 2 to 5 fold
B5 |  |  | 1.13 nM | 2 to 5 fold
